The source of these data is PMC12319226 (Frontiers in Bioinformatics, 2025).

Holding throughout (experiment): BLI
Common to all, as to conditions: both partners purified

The target in one assay is T1, fHbp m000019 (Neisseria meningitidis, fHbp v1.1 …, point mutant).
T1 chain: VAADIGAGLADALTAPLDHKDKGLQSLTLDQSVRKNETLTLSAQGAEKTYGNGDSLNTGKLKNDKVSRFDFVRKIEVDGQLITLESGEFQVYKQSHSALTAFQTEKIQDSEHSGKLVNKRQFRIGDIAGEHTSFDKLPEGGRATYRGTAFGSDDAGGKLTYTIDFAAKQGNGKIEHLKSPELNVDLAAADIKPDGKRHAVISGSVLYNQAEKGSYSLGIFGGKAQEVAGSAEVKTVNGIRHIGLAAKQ

In another assay the target is T2, fHbp m001688 (Neisseria meningitidis, engineered fHbp …, point mutant).
T2 chain: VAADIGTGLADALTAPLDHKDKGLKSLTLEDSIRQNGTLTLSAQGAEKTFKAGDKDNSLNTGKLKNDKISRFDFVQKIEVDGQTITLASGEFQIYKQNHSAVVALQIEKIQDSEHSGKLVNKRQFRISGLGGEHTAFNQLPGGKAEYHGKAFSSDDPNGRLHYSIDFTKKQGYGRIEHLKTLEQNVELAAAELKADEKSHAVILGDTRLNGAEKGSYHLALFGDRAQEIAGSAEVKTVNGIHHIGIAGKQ

Another assay concerns the target T3, fHbp m001607 (Neisseria meningitidis, fHbp …, point mutant).
T3 chain: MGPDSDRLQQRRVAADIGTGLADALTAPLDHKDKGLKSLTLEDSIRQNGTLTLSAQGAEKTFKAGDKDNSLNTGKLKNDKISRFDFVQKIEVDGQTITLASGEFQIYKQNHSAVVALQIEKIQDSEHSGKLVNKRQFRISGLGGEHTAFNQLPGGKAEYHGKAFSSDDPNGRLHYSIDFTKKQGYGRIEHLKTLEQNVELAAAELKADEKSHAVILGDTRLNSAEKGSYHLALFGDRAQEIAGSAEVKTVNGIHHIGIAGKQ

Another assay concerns the target T4, fHbp m001199 (Neisseria meningitidis fHbp v3.28-based …, point mutant).
T4 chain: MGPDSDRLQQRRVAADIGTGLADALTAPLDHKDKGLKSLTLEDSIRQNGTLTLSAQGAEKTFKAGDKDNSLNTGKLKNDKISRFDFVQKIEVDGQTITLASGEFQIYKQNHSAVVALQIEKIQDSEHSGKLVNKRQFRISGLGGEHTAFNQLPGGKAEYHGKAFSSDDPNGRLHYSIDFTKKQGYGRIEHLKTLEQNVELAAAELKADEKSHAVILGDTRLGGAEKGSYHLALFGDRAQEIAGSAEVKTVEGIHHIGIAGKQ

The next assay addresses T5, fHbp m001119 (Neisseria meningitidis fHbp v3.28-based …, point mutant).
T5 chain: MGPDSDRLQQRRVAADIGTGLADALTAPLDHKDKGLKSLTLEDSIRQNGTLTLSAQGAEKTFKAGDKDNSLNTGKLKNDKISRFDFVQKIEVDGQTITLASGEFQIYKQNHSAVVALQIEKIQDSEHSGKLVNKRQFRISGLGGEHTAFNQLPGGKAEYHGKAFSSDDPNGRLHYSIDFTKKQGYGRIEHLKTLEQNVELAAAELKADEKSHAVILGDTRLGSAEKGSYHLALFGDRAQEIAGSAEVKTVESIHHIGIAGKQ

The next assay addresses T6, fHbp m001015 (Neisseria meningitidis fHbp v3.28, …, point mutant).
T6 chain: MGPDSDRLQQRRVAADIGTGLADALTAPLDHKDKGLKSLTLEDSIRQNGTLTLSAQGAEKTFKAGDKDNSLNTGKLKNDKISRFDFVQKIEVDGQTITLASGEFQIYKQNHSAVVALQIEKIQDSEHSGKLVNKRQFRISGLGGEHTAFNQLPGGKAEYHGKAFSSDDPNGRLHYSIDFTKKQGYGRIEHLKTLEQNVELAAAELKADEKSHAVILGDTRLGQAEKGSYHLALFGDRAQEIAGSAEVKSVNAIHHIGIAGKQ

Another assay concerns the target T7, fHbp m001847 (Neisseria meningitidis, engineered fHbp …, chimera).
T7 chain: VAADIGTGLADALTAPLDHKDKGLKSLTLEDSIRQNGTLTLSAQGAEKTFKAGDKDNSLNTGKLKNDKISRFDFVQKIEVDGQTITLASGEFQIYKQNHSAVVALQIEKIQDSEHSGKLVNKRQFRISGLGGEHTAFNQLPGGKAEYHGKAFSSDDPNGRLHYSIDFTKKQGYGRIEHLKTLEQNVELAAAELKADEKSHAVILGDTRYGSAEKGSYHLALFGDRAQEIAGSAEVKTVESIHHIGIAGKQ

The target of a further assay is T8, fHbp m001040 (Neisseria meningitidis fHbp v3.28-based …, point mutant).
T8 chain: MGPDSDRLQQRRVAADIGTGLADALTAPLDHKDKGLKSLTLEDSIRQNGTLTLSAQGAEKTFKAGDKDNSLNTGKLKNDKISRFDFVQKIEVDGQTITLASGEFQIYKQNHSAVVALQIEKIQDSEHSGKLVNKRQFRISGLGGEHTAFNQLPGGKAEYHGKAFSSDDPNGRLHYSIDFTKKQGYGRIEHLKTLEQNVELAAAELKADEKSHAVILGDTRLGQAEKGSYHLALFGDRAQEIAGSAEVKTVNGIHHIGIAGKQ

The next assay addresses T9, fHbp m002417 (Neisseria meningitidis fHbp v3.28, …, chimera).
T9 chain: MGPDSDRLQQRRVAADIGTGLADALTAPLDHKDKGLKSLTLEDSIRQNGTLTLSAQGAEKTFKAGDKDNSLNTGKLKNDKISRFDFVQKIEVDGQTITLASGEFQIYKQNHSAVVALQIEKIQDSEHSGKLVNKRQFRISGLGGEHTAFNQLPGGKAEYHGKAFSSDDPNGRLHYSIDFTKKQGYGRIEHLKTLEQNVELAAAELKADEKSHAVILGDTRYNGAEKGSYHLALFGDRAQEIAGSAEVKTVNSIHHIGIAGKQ

B1: mAb 4B3 (human) (antibody, V domains shown)
VH: QVQLVQSGGGLVKPGGSLRLSCAASGFPFSSYYMSWIRQAPGKGLEWVSDINNSGNVKEYADFVKGRLTISRDNVKNSMYLHMNSLRVEDTAVYYCARNRGRFDVWGQGTLVTVSA
VL: EIVMTQSPGTLSLSPGETATLSCRASQMISSPFLAWYQQRRGQAPRLLIYGASTRATDTPDRFRGSGSGTDFILTISRLEPEDFAVYYCQYYDDSPFTFGQGTKLEIK
notes: also called 4B3-2; source: Expi293, purified (MabSelect SuRe, SEC); copies: 2 + 2
Take B1: in the assay with fHbp m000019, the dissociation constant (Kd) (as a rule, a measure of binding affinity in units of concentration) stood at 5.53 nM; the koff (in general, the rate constant with which the complex falls apart) came out at 0.00124 s⁻¹; the kon (in general, the second-order rate constant of association) worked out at 224400 ± 1040 M⁻¹ s⁻¹.

B2: chimeric antibody h12C1 (antibody, V domains shown)
VH: QVQLQESGPELVKPGASVKISCKASGYSFSDYNMSWVKQSNGKSLEWIGIIDPKYGTINYNQKFKGKATLTVDQASSTAYMQLNSLTSEDSAVYYCVRDYYGSSYFDYWGQGTTLTVSS
VL: DIVLTQSPSSIYASLGERVTLTCKASQDIHNYLNWFQQKPGKSPKTLIYRANRLVDGVPSRFSGGGSGQDYSLTISSLEFEDIGIYYCLQYDEFPPTFGGGTRLEIK
notes: also called humanized 12C1; source: Expi293, purified (MabSelect SuRe, SEC); copies: 2 + 2
On to B2, for which the equilibrium dissociation constant (Kd) stood at 53.8 nM in the assay with fHbp m001688; 32.9 nM with fHbp m001607; 25.1 nM in the assay with fHbp m001199; 0.957 nM in the assay with fHbp m001119; 187 nM with fHbp m001015; 108 nM with fHbp m001847. Also, the dissociation constant Kd was determined as 0.523 nM with fHbp m001040 and 95.7 nM with fHbp m002417. The dissociation rate constant (koff) was determined as 0.0106 s⁻¹ with fHbp m001688; 0.012 s⁻¹ with fHbp m001607; 0.0095 s⁻¹ with fHbp m001199; 0.000266 s⁻¹ with fHbp m001119; 0.02355 ± 0.000153 s⁻¹ with fHbp m001015; 0.00885 ± 0.000103 s⁻¹ in the assay with fHbp m001847. In addition, the dissociation rate constant (koff) with fHbp m001040 stood at 0.000192 s⁻¹; in the assay with fHbp m002417, 0.00962 s⁻¹. Further, the kon worked out at 197000 ± 3980 M⁻¹ s⁻¹ in the assay with fHbp m001688; 366000 ± 13300 M⁻¹ s⁻¹ with fHbp m001607; 378900 ± 3300 M⁻¹ s⁻¹ with fHbp m001199; 278300 ± 1110 M⁻¹ s⁻¹ in the assay with fHbp m001119; 126000 ± 5980 M⁻¹ s⁻¹ with fHbp m001015; 81800 ± 5640 M⁻¹ s⁻¹ in the assay with fHbp m001847. Besides, the kon with fHbp m001040 was determined as 368300 ± 1820 M⁻¹ s⁻¹; with fHbp m002417, 101000 ± 1890 M⁻¹ s⁻¹.

B3: mAb 1E6 (human) (antibody, V domains shown)
VH: EVQLVQSGAEVKKPGSSVKVSCKASGGTVIDYPITWVRQAPGQGLEWVGGFVPLFRTSNYGQKFQGRVTITADKSTSTASMELNSLTSEDTAIYYCARGDTAMGPFDYWGQGTLVTVSS
VL: SYVLTQPPSLSVAPGKTATLTCGGNNIAGKTVHWYQQRPGQAPVLVISYDSDRPSGIPERFSGSNSANTATLTISRVEAGDEADYYCQVWDRNSDHWVFGGGTKLTVL
notes: source: Expi293, purified (MabSelect SuRe, SEC); copies: 2 + 2
With B3, the Kd with fHbp m001688 is 0.937 nM; with fHbp m001607 it was 0.242 nM; in the assay with fHbp m001199, 0.329 nM; in the assay with fHbp m001119 it was 0.886 nM; with fHbp m001015 it was 1.11 nM; with fHbp m001847, 0.348 nM. Further, the dissociation constant (Kd) in the assay with fHbp m001040 was determined as 0.594 nM; with fHbp m002417 it was 0.502 nM; with fHbp m000019, 2.19 nM. The koff with fHbp m001688 came out at 0.000258 s⁻¹; with fHbp m001607, 0.000117 s⁻¹; in the assay with fHbp m001199, 0.000132 s⁻¹; with fHbp m001119 it was 0.000349 s⁻¹; with fHbp m001015, 0.000418 s⁻¹; with fHbp m001847, 0.000123 s⁻¹. Moreover, the koff with fHbp m001040 was 0.000266 s⁻¹; in the assay with fHbp m002417, 0.000179 s⁻¹; in the assay with fHbp m000019, 0.00153 s⁻¹. Further, the on-rate constant (kon) with fHbp m001688 amounted to 275900 ± 1570 M⁻¹ s⁻¹; in the assay with fHbp m001607, 484000 ± 5230 M⁻¹ s⁻¹; with fHbp m001199, 400500 ± 3250 M⁻¹ s⁻¹; with fHbp m001119 it was 393800 ± 1250 M⁻¹ s⁻¹; with fHbp m001015, 375100 ± 1120 M⁻¹ s⁻¹; with fHbp m001847 it was 353300 ± 2150 M⁻¹ s⁻¹. Also, the kon with fHbp m001040 came out at 447100 ± 3340 M⁻¹ s⁻¹; with fHbp m002417, 356800 ± 1380 M⁻¹ s⁻¹; with fHbp m000019, 698800 ± 3080 M⁻¹ s⁻¹.
